We go through two substances from patent US6906033.

For this test, the target named is Plasmin. The test can be described thus: enzyme inhibition.

Substance Aprotinin displayed a Ki of 230 pM. The figure for Aprotinin R15, S42 is 170 pM.

By Ki is commonly meant the dissociation constant of the complex between target and ligand, obtained from inhibition or displacement.
